# Measurements as given in FireProtDB (doi:10.1110/ps.0205902).
# B1: Guanyl-specific ribonuclease T1 wild type, P00651 (protein)
# chain: MMYSKLLTLTTLLLPTALALPSLVERACDYTCGSNCYSSSDVSTAQAAGYQLHEDGETVGSNSYPHKYNNYEGFDFSVSSPYYEWPILSSGDVYSGGSPGADRVVFNENNQLAGVITHTGASGNNFVECT
# Conditions: Aspergillus oryzae (strain ATCC 42149 / RIB 40), pH 3, 25 °C, Urea, CD, Glycine-HCl 3 mM, reversible: yes, whole UniProt chain shown
protein,measurement,setting,value
B1,denaturant m value,Na2SO4 0.01 M,1.67 kcal/mol/M
same,denaturant midpoint (higher = more stable),Na2SO4 0.01 M,2.55 M
same,unfolding free energy,Na2SO4 0.01 M,4.2 kcal/mol
same,denaturant m value,Na2SO4 0.20 M,1.52 kcal/mol/M
same,denaturant midpoint (higher = more stable),Na2SO4 0.20 M,4.21 M
same,unfolding free energy,Na2SO4 0.20 M,6.38 kcal/mol
same,denaturant m value,Na2SO4 0.50 M,1.5 kcal/mol/M
same,denaturant midpoint (higher = more stable),Na2SO4 0.50 M,5.28 M
same,unfolding free energy,Na2SO4 0.50 M,7.91 kcal/mol
same,denaturant m value,Na2SO4 0.80 M,1.47 kcal/mol/M
same,denaturant midpoint (higher = more stable),Na2SO4 0.80 M,5.81 M
same,unfolding free energy,Na2SO4 0.80 M,8.56 kcal/mol
same,denaturant m value,NaCl 0.01 M,2.29 kcal/mol/M
same,denaturant midpoint (higher = more stable),NaCl 0.01 M,1.43 M
same,unfolding free energy,NaCl 0.01 M,3.26 kcal/mol
same,denaturant m value,NaCl 0.25 M,1.85 kcal/mol/M
same,denaturant midpoint (higher = more stable),NaCl 0.25 M,2 M
same,unfolding free energy,NaCl 0.25 M,3.69 kcal/mol
same,denaturant m value,NaCl 0.50 M,1.8 kcal/mol/M
same,denaturant midpoint (higher = more stable),NaCl 0.50 M,2.49 M
same,unfolding free energy,NaCl 0.50 M,4.48 kcal/mol
same,denaturant m value,NaCl 0.75 M,1.75 kcal/mol/M
same,denaturant midpoint (higher = more stable),NaCl 0.75 M,2.91 M
same,unfolding free energy,NaCl 0.75 M,5.07 kcal/mol
same,denaturant m value,NaCl 1.00 M,1.64 kcal/mol/M
same,denaturant midpoint (higher = more stable),NaCl 1.00 M,3.21 M
same,unfolding free energy,NaCl 1.00 M,5.28 kcal/mol
same,denaturant m value,NaSCN 0.01 M,2.21 kcal/mol/M
same,denaturant midpoint (higher = more stable),NaSCN 0.01 M,1.44 M
same,unfolding free energy,NaSCN 0.01 M,3.05 kcal/mol
same,denaturant m value,NaSCN 0.05 M,1.87 kcal/mol/M
same,denaturant midpoint (higher = more stable),NaSCN 0.05 M,1.55 M
same,unfolding free energy,NaSCN 0.05 M,2.91 kcal/mol
same,denaturant m value,NaSCN 0.25 M,1.23 kcal/mol/M
same,denaturant midpoint (higher = more stable),NaSCN 0.25 M,1.5 M
same,unfolding free energy,NaSCN 0.25 M,1.85 kcal/mol
same,denaturant m value,NaSCN 0.50 M,1.03 kcal/mol/M
same,denaturant midpoint (higher = more stable),NaSCN 0.50 M,1.38 M
same,unfolding free energy,NaSCN 0.50 M,1.43 kcal/mol
same,denaturant m value,NaSCN 0.75 M,1.1 kcal/mol/M
same,denaturant midpoint (higher = more stable),NaSCN 0.75 M,1.04 M
same,unfolding free energy,NaSCN 0.75 M,1.14 kcal/mol
same,denaturant m value,,2.24 kcal/mol/M
same,denaturant midpoint (higher = more stable),,1.48 M
same,unfolding free energy,,3.28 kcal/mol
